The source of these data is patent publication US20040005543, “Compositions and methods for binding agglomeration proteins” (published 2004).

Series [1] deals with T1, hrPrP23-231 (recombinant human prion protein, full length) (Homo sapiens, UniProt P04156 P04156:23-231). The experiment in a line: filter; […]; 2 mM MgCl2, 250 mM NaCl, 37 C; […]. To be noted: tags: provided by Man-Sun Sy, Case Western; label: internal 32P; G4 (AP1 insert).
The target of series [2] is hrPrP90-231 (C-terminal portion) (Homo sapiens, UniProt P04156 P04156:90-231). The experiment in a line: filter; 20 nM protein; no detectable binding. To be noted: tags: provided by Man-Sun Sy, Case Western, label: internal 32P.
Series [3] deals with T2, hrPrP23-144 (N-terminal portion) (Homo sapiens, UniProt P04156 P04156:23-144). The experiment in a line: filter; 20 nM protein, no tRNA. To be noted: tags: provided by Man-Sun Sy, Case Western; label: internal 32P.
Series [4] has as its target T1, hrPrP23-231 (recombinant human prion …). The experiment in a line: filter; no tRNA; 2 mM MgCl2, 250 mM NaCl, 37 C. To be noted: tags: provided by Man-Sun Sy, Case Western; label: internal 32P.
For series [5] the target is unchanged. In words: filter; with 10 ng/uL tRNA; 250 mM NaCl, 37 C. To be noted: tags: provided by Man-Sun Sy, Case Western; label: internal 32P.
In series [6] the target is T2, hrPrP23-144 (N-terminal portion). The experiment in a line: filter; 20 nM protein, Buffer B with tRNA. To be noted: tags: provided by Man-Sun Sy, Case Western; label: internal 32P.
In a further series the target is lysozyme (UniProt P00698 P00698:19-147). In words: filter; 2 nM RNA, 20 nM protein, Buffer A with 10 ng/uL tRNA; background level. To be noted: label: internal 32P.
In series [7] the target is BSA (bovine serum albumin) (UniProt P02769 P02769:25-607). The experiment in a line: filter; Buffer A with 10 ng/uL tRNA; background level. To be noted: tags: Ultra-pure BSA, Ambion; label: internal 32P.

B1: MNV:AP1 (PrP-Amp) (ssRNA)
RNA: GGGUUCAUAGCCUAUUCGGCUUCGCGCAUGGGAAUUUGAGGGACGAUGGGGAAGUGGGAGCGCGUUUUAAAGGACCUUUUUCCCUCGCGUAGCUAGCUACGCGAGGUGACCCCCCGAAGGGGGGUGCCCC
One may read the Kd as a measure of binding affinity in units of concentration. On to B1, for which, in series [1], the equilibrium dissociation constant (Kd) was determined as 3.8 nM. Besides, the binding result in series [2] (G4 (AP1 insert)) was “no binding”.

B2: MNV (ssRNA)
RNA: GGGUUCAUAGCCUAUUCGGCUUUUAAAGGACCUUUUUCCCUCGCGUAGCUAGCUACGCGAGGUGACCCCCCGAAGGGGGGUGCCCC
Turning to B2, the binding result is reported as “no binding” in series [2] and “binds” in series [3].

B3: RQT157 (ssRNA)
RNA: GGGGUUUCGAACCGGAAUUUGAGGGAUGCCUAGGCAUCCCCCGUGCGUCCCUUUACGAGGGAUUGUCGACUCUAGAGGAUCCGGUACCUGAGGGAUGCCUAGGCAUCCCCGCGCGCCGGUUUCGGACCUCCAGUGCGUGUUACCGCACUGUCGACCC
As to B3, the Kd in series [4] came out at 56 nM.

B4: AP46 (ssRNA)
RNA: GGGAAUUUGAGGACGAUGGUAAGUGG
Turning to B4, the Kd amounted to 100 nM in series [5] and 14 nM in series [4].

B5: RQ11+12 (ssRNA)
RNA: GGGGUUUCCAACCGGAAUUUGAGGGAUGCCUAGGCAUCCCCCGUGCGUCCCUUUACGAGGGAUUGUCGACUCUAGUCGACGUCUGGGCGAAAAAUGUACGAGAGGACCUUUUCGGUACAGACGGUACCUGAGGGAUGCCUAGGCAUCCCCCGCGCCGGUUUCGGACCUCCAGUGCGUGUUACCGCACUGUCGACCC
Regarding B5, the binding result in series [2] was “no binding”; in series [6] it was “binds”; with lysozyme it was “no binding”; in series [7], “no binding”.
